Experimental data: the supplement of paper PMC11246515
± gives the standard deviation of the averaged measurements.

Test: total protein half-life in vivo (active degradation + dilution); higher = more stable protein
[1] = E. coli NCM3722 delta-clpP, growth: N-lim chemostat, doubling time 6 h
[2] = E. coli NCM3722 delta-hslV, growth: N-lim chemostat, doubling time 6 h
[3] = E. coli NCM3722 delta-lon, growth: N-lim chemostat, doubling time 6 h
[4] = E. coli NCM3722 delta-smpB, growth: N-lim chemostat, doubling time 6 h
[5] = wild type E. coli NCM3722, growth: C-lim chemostat, doubling time 3 h
[6] = wild type E. coli NCM3722, growth: C-lim chemostat, doubling time 6 h
[7] = wild type E. coli NCM3722, growth: C-lim chemostat, doubling time 12 h
[8] = wild type E. coli NCM3722, growth: N-lim chemostat, doubling time 6 h
[9] = wild type E. coli NCM3722, growth: N-lim chemostat, doubling time 12 h
[10] = wild type E. coli NCM3722, growth: P-lim chemostat, doubling time 6 h
[11] = wild type E. coli NCM3722, growth: P-lim chemostat, doubling time 12 h
[12] = E. coli NCM3722 delta-clpP delta-lon delta-hslV, growth: N-lim chemostat, doubling time 6 h

MLGKYKAVLALLLLIILVPLTLLMTLGLWVPTLAGIWLPLGTRIALDESPRITRKGLIIPDLRYLVGDCQLAHITNASLSHPSRWLLNVGTVELDSACLAKLPQTEQSPAAPKTLAQWQAMLPNTWINIDKLIFSPWQEWQGKLSLALTSDIQQLRYQGEKVKFQGQLKGQQLTVSELDVVAFENQPPVKLVGEFAMPLVPDGLPVSGHATATLNLPQEPSLVDAELDWQENSGQLIVLARDNGDPLLDLPWQITRQQLTVSDGRWSWPYAGFPLSGRLGVKVDNWQAGLENALVSGRLSVLTQGQAGKGNAVLNFGPGKLSMDNSQLPLQLTGEAKQADLILYARLPAQLSGSLSDPTLTFEPGALLRSKGRVIDSLDIDEIRWPLAGVKVTQRGVDGRLQAILQAHENELGDFVLHMDGLANDFLPDAGRWQWRYWGKGSFTPMNATWDVAGKGEWHDSTITLTDLSTGFDQLQYGTMTVEKPRLILDKPIVWVRDAQHPSFSGALSLDAGQTLFTGGSVLPPSTLKFSVDGRDPTYFLFKGDLHAGEIGPVRVNGRWDGIRLRGNAWWPKQSLTVFQPLVPPDWKMNLRDGELYAQVAFSAAPEQGFRAGGHGVLKGGSAWMPDNQVNGVDFVLPFRFADGAWHLGTRGPVTLRIAEVINLVTAKNITADLQGRYPWTEEEPLLLTDVSVDVLGGNVLMKQLRMPQHDPALLRLNNLSSSELVSAVNPKQFAMSGAFSGALPLWLNNEKWIVKDGWLANSGPMTLRLDKDTADAVVKDNMTAGSAINWLRYMEISRSSTKINLDNLGLLTMQANITGTSRVDGKSGTVNLNYHHEENIFTLWRSLRFGDNLQAWLEQNARLPGNDCPQGKECEEKQ
total protein half-life in vivo [1]: 5.985 ± 0.043 h | total protein half-life in vivo [2]: 6.03 ± 0.13 h | total protein half-life in vivo [3]: 6.22 ± 0.2 h | total protein half-life in vivo [4]: 5.57 ± 0.078 h | total protein half-life in vivo [5]: 3.236 ± 0.032 h | total protein half-life in vivo [6]: 6.2 ± 0.12 h | total protein half-life in vivo [7]: 10.8 ± 0.14 h | total protein half-life in vivo [8]: 6 ± 0.47 h | total protein half-life in vivo [9]: 12.3 ± 0.45 h | total protein half-life in vivo [10]: 6.06 ± 0.32 h | total protein half-life in vivo [11]: 12.17 ± 0.039 h

MLGLKQVHHIAIIATDYAVSKAFYCDILGFTLQSEVYREARDSWKGDLALNGQYVIELFSFPFPPERPSRPEACGLRHLAFSVDDIDAAVAHLESHNVKCETIRVDPYTQKRFTFFNDPDGLPLELYEQ
total protein half-life in vivo [12]: 3.94 ± 0.96 h | total protein half-life in vivo [1]: 4.26 ± 0.34 h | total protein half-life in vivo [3]: 4.65 ± 0.89 h | total protein half-life in vivo [4]: 3.22 h | total protein half-life in vivo [5]: 2.51 h | total protein half-life in vivo [6]: 5.13 h | total protein half-life in vivo [7]: 11.4 h | total protein half-life in vivo [8]: 3.54 h | total protein half-life in vivo [9]: 4.57 ± 0.75 h | total protein half-life in vivo [10]: 6.05 ± 1.1 h | total protein half-life in vivo [11]: 11.7 ± 0.74 h

MLGWVITCHDDRAQEILDALEKKHGALLQCRAVNFWRGLSSNMLSRMMCDALHEADSGEGVIFLTDIAGAPPYRVASLLSHKHSRCEVISGVTLPLIEQMMACRETMTSSEFRERIVELGAPEVSSLWHQQQKNPPFVLKHNLYEY
total protein half-life in vivo [12]: 4.15 h | total protein half-life in vivo [6]: 0.895 h | total protein half-life in vivo [7]: 0.859 h

MLHKKTLLFAALSAALWGGATQAADAAVVASLKPVGFIASAIADGVTETEVLLPDGASEHDYSLRPSDVKRLQNADLVVWVGPEMEAFMQKPVSKLPGAKQVTIAQLEDVKPLLMKSIHGDDDDHDHAEKSDEDHHHGDFNMHLWLSPEIARATAVAIHGKLVELMPQSRAKLDANLKDFEAQLASTETQVGNELAPLKGKGYFVFHDAYGYFEKQFGLTPLGHFTVNPEIQPGAQRLHEIRTQLVEQKATCVFAEPQFRPAVVESVARGTSVRMGTLDPLGTNIKLGKTSYSEFLSQLANQYASCLKGD
total protein half-life in vivo [12]: 3.68 ± 0.41 h | total protein half-life in vivo [1]: 4.85 ± 0.4 h | total protein half-life in vivo [2]: 5.99 ± 0.29 h | total protein half-life in vivo [3]: 7.17 ± 0.96 h | total protein half-life in vivo [5]: 2.86 ± 0.12 h | total protein half-life in vivo [6]: 5.54 ± 0.29 h | total protein half-life in vivo [7]: 9.55 ± 1.5 h | total protein half-life in vivo [9]: 13.6 ± 1.4 h | total protein half-life in vivo [10]: 5.24 ± 0.2 h | total protein half-life in vivo [11]: 11.4 ± 2.3 h

MLHLFAGLDLHTGLLLLLALAFVLFYEAINGFHDTANAVATVIYTRAMRSQLAVVMAAVFNFLGVLLGGLSVAYAIVHMLPTDLLLNMGSSHGLAMVFSMLLAAIIWNLGTWYFGLPASSSHTLIGAIIGIGLTNALMTGTSVVDALNIPKVLSIFGSLIVSPIVGLVFAGGLIFLLRRYWSGTKKRARIHLTPAEREKKDGKKKPPFWTRIALILSAIGVAFSHGANDGQKGIGLVMLVLIGVAPAGFVVNMNATGYEITRTRDAINNVEAYFEQHPALLKQATGADQLVPAPEAGATQPAEFHCHPSNTINALNRLKGMLTTDVESYDKLSLDQRSQMRRIMLCVSDTIDKVVKMPGVSADDQRLLKKLKSDMLSTIEYAPVWIIMAVALALGIGTMIGWRRVATTIGEKIGKKGMTYAQGMSAQMTAAVSIGLASYTGMPVSTTHVLSSSVAGTMVVDGGGLQRKTVTSILMAWVFTLPAAVLLSGGLYWLSLQFL [P0AFJ7]
total protein half-life in vivo [12]: 6.99 ± 0.45 h | total protein half-life in vivo [1]: 6.5 ± 1.2 h | total protein half-life in vivo [4]: 6.14 ± 0.78 h | total protein half-life in vivo [5]: 3.761 ± 0.013 h | total protein half-life in vivo [6]: 6.37 ± 1.4 h | total protein half-life in vivo [7]: 14.4 ± 0.95 h | total protein half-life in vivo [8]: 6.13 ± 0.24 h | total protein half-life in vivo [10]: 6.54 ± 0.4 h | total protein half-life in vivo [11]: 12.6 ± 1 h

MLHTLHRSPWLTDFAALLRLLSEGDELLLLQDGVTAAVDGNRYLESLRNAPIKVYALNEDLIARGLTGQISNDIILIDYTDFVRLTVKHPSQMAW
total protein half-life in vivo [12]: 5.27 ± 0.29 h | total protein half-life in vivo [1]: 5.7 h | total protein half-life in vivo [2]: 4.53 ± 0.13 h | total protein half-life in vivo [3]: 6.44 ± 1.6 h | total protein half-life in vivo [4]: 4.89 ± 0.16 h | total protein half-life in vivo [5]: 3.012 ± 0.0044 h | total protein half-life in vivo [6]: 5.1 h | total protein half-life in vivo [7]: 13.4 ± 3 h | total protein half-life in vivo [8]: 4.39 ± 0.46 h | total protein half-life in vivo [9]: 8.26 h | total protein half-life in vivo [10]: 5.89 h | total protein half-life in vivo [11]: 11.3 ± 0.18 h

MLILKNVTAVQLHPAKVQEGVDIAIENDVIVAIGDALTQRYPDASFKEMHGRIVMPGIVCSHNHFYSGLSRGIMANIAPCPDFISTLKNLWWRLDRALDEESLYYSGLICSLEAIKSGCTSVIDHHASPAYIGGSLSTLRDAFLKVGLRAMTCFETTDRNNGIKELQEGVEENIRFARLIDEAKKATSEPYLVEAHIGAHAPFTVPDAGLEMLREAVKATGRGLHIHAAEDLYDVSYSHHWYGKDLLARLAQFDLIDSKTLVAHGLYLSKDDITLLNQRDAFLVHNARSNMNNHVGYNHHLSDIRNLALGTDGIGSDMFEEMKFAFFKHRDAGGPLWPDSFAKALTNGNELMSRNFGAKFGLLEAGYKADLTICDYNSPTPLLADNIAGHIAFGMGSGSVHSVMVNGVMVYEDRQFNFDCDSIYAQARKAAASMWRRMDALA
total protein half-life in vivo [12]: 3.15 h | total protein half-life in vivo [5]: 2.62 h | total protein half-life in vivo [6]: 4.3 h | total protein half-life in vivo [7]: 11.2 h

MLKARNCGWIRLLPLFMLSLPVQAELRCVANAVDIESFFSAATAEDKQQVEQAINSSVNLVPFGLSASNWKVHRGDLVVEGNIESNQKLIVLGNLTVKGNISTFSLSNPWVILGNVTATNIVADSPLLITGSINASGLVFIDSYYDNPSTIKGSINARGIFINDIIAPVVASSTNSEFMVRASDKHDTENVKKALMIINPDAYYWGLINDEDALKEIFKRSNIRMAGNVCNQMKKEALFRPKPSPELVQELQMLDEGKVAAFEGRDIATFDLAVMRTLPRLKGISANLRKQLINSNDEQTIESMARYMPDNEILELTDQQLGYQPVVLGLLDREPLSVEIMTRMSRLPDGVGPLNLALRENLPLDIVMTLAKRDWDMIIQELYKDAWLLPESIIDGYIRSDDSSIRQVGAGGQLTYNQAMQLANDSSNNVVTSLAFKLAEMKHHGQLLRMTPQESDKVAGYLYQKFENDDDLIRVLFLALPDNLQFNFVKRMEKKSPAYFCCRDMQVIHSDAALQRLLTRFNDPEGWSNLAKNQYLSTSMKQKIWQRALSHRKNNPKADSDAYETSADMILSELISHGEVDDQMLLNATALIRSDDWDFLESALISWDNLPAVVLKELQQNTPRNDIWAKFFLRQENSSRAQVDEALRVYYALDPDALAQLDVLAKQPDRIWWSTLAKSNLTFFKFGALNNRHTPPAVLAAEIDPEWWIVAMNNPRFPVDVLKARLKRDPLLALELVNPELDLVRQLALNGKTRAIREQAMRKLDELY
total protein half-life in vivo [12]: > 8 h

MLKKCLPLLLLCTAPVFAKPVLTVYTYDSFAADWGPGPVVKKAFEADCNCELKLVALEDGVSLLNRLRMEGKNSKADVVLGLDNNLLDAASKTGLFAKSGVAADAVNVPGGWNNDTFVPFDYGYFAFVYDKNKLKNPPQSLKELVESDQNWRVIYQDPRTSTPGLGLLLWMQKVYGDDAPQAWQKLAKKTVTVTKGWSEAYGLFLKGESDLVLSYTTSPAYHILEEKKDNYAAANFSEGHYLQVEVAARTAASKQPELAQKFLQFMVSPAFQNAIPTGNWMYPVANVTLPAGFEKLTKPATTLEFTPAEVAAQRQAWISEWQRAVSR
total protein half-life in vivo [12]: 4.4 ± 0.16 h | total protein half-life in vivo [1]: 5.26 ± 0.44 h | total protein half-life in vivo [2]: 6.48 ± 0.38 h | total protein half-life in vivo [3]: 5.82 ± 0.072 h | total protein half-life in vivo [4]: 6.33 ± 0.42 h | total protein half-life in vivo [5]: 3.19 ± 0.21 h | total protein half-life in vivo [6]: 6.11 ± 0.24 h | total protein half-life in vivo [7]: 11 ± 0.89 h | total protein half-life in vivo [8]: 6.3 ± 0.13 h | total protein half-life in vivo [9]: 14 ± 2.2 h | total protein half-life in vivo [10]: 5.65 ± 0.23 h | total protein half-life in vivo [11]: 12.9 ± 0.7 h

MLKKILLLALLPAIAFAEELPAPVKAIEKQGITIIKTFDAPGGMKGYLGKYQDMGVTIYLTPDGKHAISGYMYNEKGENLSNTLIEKEIYAPAGREMWQRMEQSHWLLDGKKDAPVIVYVFADPFCPYCKQFWQQARPWVDSGKVQLRTLLVGVIKPESPATAAAILASKDPAKTWQQYEASGGKLKLNVPANVSTEQMKVLSDNEKLMDDLGANVTPAIYYMSKENTLQQAVGLPDQKTLNIIMGNK
total protein half-life in vivo [12]: 5.17 ± 0.63 h | total protein half-life in vivo [1]: 5.5 ± 0.14 h | total protein half-life in vivo [2]: 6.05 ± 0.24 h | total protein half-life in vivo [3]: 6.69 ± 1 h | total protein half-life in vivo [4]: 5.98 ± 0.33 h | total protein half-life in vivo [5]: 3.016 ± 0.006 h | total protein half-life in vivo [6]: 6.29 ± 0.74 h | total protein half-life in vivo [7]: 11.3 ± 1.4 h | total protein half-life in vivo [8]: 6.16 ± 0.33 h | total protein half-life in vivo [9]: 12.6 ± 0.62 h | total protein half-life in vivo [10]: 5.78 ± 0.55 h | total protein half-life in vivo [11]: 12.5 ± 0.27 h
